Consider four molecules from article PMC9974451, “Transportin 1 is a major nuclear import receptor of the nitric oxide synthase interacting protein” (The Journal of Biological Chemistry, 2023).

Holding throughout (conditions): both partners purified
For assay [1], the target named is RanQ69L (aa 1-180) loaded with GTP (UniProt P62826 1-180, Q69L). Description: pull-down; GST-M9 or GST-NOSIP immobilised on glutathione Sepharose beads, MBP-tagged TNPO1 FL, ΔN or ΔC, with or without RanQ69L(1-180)-GTP; Coomassie.
Assay [2] concerns the target T1, His-S-importin β (full length) (UniProt Q14974 1-876).
T1 construct: called full-length importin β (FL) in the fragment experiment; the ΔN fragment ends at aa 876; also called His-importin β; S-His-importin β
The assay can be described thus: pull-down; 100 pmol His-NOSIP-MBP (WT or K78A/K79A) or MBP immobilised on amylose beads, 100 pmol purified His-tagged NTR, with or without 300 pmol RanQ69L(1-180)-GTP, 3 h, 4 °C, TPB; SDS-PAGE, Coomassie.

Assay [3] concerns the target T1, His-S-importin β (full length). Description: pull-down; 100 pmol GST-IBB, GST-NOSIP or GST immobilised on glutathione Sepharose beads, 100 pmol His-S-tagged importin β FL, ΔN or ΔC; Western blot with anti-importin β.
For assay [4], the target named is T2, importin β ΔC (aa 1-396), His-S-tagged (UniProt Q14974 1-396).
T2 construct: also called Imp β ΔC; N-terminal (ΔC) fragment
The assay is described as above.

Assay [5] deals with T1, His-S-importin β (full length). Description: pull-down; competition: 100 pmol His-S-importin β immobilised on S-protein beads, 100 pmol His-NOSIP with 0, 100, 300, 1000 pmol His-importin α, or the other way around; Coomassie.
Assay [6] concerns the target T3, His-TNPO1 (transportin 1) (UniProt Q92973-2 1-890).
T3 construct: transportin 1; The length 890 is printed for the MBP construct only; also called His-transportin 1
T3 sequence (looked up): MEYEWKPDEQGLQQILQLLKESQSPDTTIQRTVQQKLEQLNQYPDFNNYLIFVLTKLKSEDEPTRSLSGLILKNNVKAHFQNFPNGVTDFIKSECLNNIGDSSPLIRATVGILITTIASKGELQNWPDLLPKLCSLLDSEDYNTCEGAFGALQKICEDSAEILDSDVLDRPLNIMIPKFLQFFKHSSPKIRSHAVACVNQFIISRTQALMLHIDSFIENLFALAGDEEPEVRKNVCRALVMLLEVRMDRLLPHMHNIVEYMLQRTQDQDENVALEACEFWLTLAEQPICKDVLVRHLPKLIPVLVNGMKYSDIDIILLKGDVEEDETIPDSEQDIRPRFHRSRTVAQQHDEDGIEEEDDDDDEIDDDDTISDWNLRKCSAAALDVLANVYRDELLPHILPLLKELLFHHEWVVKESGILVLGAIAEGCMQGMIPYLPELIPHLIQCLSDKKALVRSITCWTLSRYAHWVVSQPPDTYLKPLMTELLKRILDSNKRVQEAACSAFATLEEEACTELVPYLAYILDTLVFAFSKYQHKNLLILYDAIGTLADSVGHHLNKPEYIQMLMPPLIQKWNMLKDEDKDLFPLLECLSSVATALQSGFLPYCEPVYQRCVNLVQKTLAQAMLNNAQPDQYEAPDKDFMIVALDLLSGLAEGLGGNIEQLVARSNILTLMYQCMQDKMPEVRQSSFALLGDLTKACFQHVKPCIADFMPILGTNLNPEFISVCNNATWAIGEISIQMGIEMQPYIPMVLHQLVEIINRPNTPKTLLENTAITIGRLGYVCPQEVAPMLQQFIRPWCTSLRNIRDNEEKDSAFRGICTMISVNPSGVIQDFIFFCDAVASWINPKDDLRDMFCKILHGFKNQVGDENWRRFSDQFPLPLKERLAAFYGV
The assay can be described thus: differential scanning fluorimetry; His-tagged NTR at 0.5 μM in TPB with 2 mM DTT, His-NOSIP or Ubc9 titrated in 18 steps from 0.05 to 5 μM, 5x SYPRO Orange, 25 to 90 °C; Tm plotted against concentration, exponential fit.

In another assay the target is T4, His-importin 13 (UniProt O94829 1-963).
T4 construct: importin 13; also called Imp 13; His-Imp13; source: E. coli JM109, purified (Ni-NTA agarose, size exclusion chromatography)
T4 sequence (looked up): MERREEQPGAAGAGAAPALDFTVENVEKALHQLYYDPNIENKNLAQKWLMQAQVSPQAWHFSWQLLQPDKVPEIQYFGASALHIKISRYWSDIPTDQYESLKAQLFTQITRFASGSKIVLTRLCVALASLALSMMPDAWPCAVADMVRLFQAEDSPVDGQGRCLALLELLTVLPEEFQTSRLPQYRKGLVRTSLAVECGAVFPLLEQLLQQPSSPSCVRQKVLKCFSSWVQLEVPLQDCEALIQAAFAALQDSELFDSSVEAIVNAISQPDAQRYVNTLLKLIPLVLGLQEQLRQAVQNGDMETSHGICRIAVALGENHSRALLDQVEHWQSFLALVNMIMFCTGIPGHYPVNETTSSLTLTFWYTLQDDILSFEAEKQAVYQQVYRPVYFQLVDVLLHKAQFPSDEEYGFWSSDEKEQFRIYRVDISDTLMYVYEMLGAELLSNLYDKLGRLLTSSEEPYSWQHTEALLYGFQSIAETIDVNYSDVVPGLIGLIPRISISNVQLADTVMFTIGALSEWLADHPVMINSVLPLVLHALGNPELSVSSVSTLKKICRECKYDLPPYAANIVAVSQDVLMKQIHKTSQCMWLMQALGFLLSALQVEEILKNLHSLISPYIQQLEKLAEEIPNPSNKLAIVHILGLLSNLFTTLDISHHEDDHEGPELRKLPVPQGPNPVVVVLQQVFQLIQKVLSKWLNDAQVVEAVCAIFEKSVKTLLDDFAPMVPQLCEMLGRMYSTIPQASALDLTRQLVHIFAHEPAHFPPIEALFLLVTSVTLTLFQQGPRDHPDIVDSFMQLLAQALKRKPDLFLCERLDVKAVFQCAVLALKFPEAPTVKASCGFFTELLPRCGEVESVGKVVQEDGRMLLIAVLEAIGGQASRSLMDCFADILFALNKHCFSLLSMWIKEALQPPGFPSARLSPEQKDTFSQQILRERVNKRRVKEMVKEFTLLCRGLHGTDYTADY
Described as above.

T1 sequence (Q14974 whole entry, the tested form may be a part): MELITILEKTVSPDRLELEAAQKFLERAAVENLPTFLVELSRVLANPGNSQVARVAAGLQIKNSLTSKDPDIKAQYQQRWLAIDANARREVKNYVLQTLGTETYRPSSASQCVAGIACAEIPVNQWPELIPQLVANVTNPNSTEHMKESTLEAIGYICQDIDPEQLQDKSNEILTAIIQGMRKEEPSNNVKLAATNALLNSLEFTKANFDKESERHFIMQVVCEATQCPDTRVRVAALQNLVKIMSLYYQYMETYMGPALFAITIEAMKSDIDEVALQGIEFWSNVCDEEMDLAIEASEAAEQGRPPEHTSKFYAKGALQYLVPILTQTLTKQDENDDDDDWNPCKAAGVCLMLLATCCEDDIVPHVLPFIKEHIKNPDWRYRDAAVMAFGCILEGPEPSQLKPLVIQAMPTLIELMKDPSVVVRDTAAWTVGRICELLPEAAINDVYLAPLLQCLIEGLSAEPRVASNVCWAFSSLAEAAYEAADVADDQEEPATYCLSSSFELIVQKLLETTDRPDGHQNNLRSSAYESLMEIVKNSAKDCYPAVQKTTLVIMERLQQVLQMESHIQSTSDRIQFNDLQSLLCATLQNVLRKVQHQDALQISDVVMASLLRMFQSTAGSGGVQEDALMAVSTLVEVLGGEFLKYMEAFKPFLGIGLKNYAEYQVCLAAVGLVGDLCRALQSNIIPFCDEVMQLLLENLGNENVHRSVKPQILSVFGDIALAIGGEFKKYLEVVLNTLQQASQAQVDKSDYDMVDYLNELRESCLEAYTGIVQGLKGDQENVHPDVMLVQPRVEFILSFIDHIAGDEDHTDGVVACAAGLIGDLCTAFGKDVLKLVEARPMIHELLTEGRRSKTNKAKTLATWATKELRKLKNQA
T2 sequence (Q14974 1-396, stated change not applied): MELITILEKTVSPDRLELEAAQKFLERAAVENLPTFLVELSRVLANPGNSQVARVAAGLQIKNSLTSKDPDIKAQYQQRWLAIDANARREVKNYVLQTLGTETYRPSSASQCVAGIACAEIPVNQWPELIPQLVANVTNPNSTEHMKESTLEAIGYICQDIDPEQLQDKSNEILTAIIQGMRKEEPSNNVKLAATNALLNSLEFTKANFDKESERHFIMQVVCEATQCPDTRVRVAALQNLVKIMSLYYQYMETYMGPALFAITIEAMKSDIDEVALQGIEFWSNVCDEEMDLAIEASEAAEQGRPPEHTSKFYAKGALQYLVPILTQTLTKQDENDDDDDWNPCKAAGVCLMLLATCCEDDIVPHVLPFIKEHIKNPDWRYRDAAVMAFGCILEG

B1: MBP-TNPO1 FL (aa 1-890) (natural protein)
chain: T3 sequence (looked up)
notes: transportin 1, full length printed as aa 1-890 (890 residues); also called full-length TNPO1; source: E. coli BL21DE3, purified (amylose resin, size exclusion chromatography)
B1: the binding result in assay [1] is “binds”.

B2: His-NOSIP-MBP (nitric oxide synthase interacting protein) (natural protein, UniProt Q9Y314 1-301, looked up)
chain: MTRHGKNCTAGAVYTYHEKKKDTAASGYGTQNIRLSRDAVKDFDCCCLSLQPCHDPVVTPDGYLYEREAILEYILHQKKEIARQMKAYEKQRGTRREEQKELQRAASQDHVRGFLEKESAIVSRPLNPFTAKALSGTSPDDVQPGPSVGPPSKDKDKVLPSFWIPSLTPEAKATKLEKPSRTVTCPMSGKPLRMSDLTPVHFTPLDSSVDRVGLITRSERYVCAVTRDSLSNATPCAVLRPSGAVVTLECVEKLIRKDMVDPVTGDKLTDRDIIVLQRGGTGFAGSGVKLQAEKSRPVMQA
notes: Name is printed in the order His-NOSIP-MBP; also called wildtype (WT) His-NOSIP-MBP; immobilized NOSIP; source: E. coli JM109, purified (Ni-NTA agarose, amylose resin, dialysis)
B2: the binding result in assay [2] is recorded as “binds”.

B3: GST-NOSIP (natural protein, UniProt Q9Y314 1-301, looked up)
chain: B2 chain
notes: also called immobilized GST-NOSIP; source: E. coli JM109, purified (glutathione Sepharose, size exclusion chromatography)
As to B3, the binding result in assay [3] and in assay [4] was “binds” each time.

B4: His-NOSIP (natural protein, UniProt Q9Y314 1-301, looked up)
chain: B2 chain
notes: Lacks the MBP tag; source: E. coli JM109, purified (Ni-NTA agarose, size exclusion chromatography)
For B4, in assay [5], the binding result was “binds”. For the same molecule, the Kd is 233 ± 60 nM in assay [6] and 417 ± 100 nM with His-importin 13.
